Where two headings read alike, the source gives them in different places.
T1: type I interferon (IFN) receptor subunit 1 (IFNAR1) (human, UniProt P17181 28-557)
T1 sequence (looked up): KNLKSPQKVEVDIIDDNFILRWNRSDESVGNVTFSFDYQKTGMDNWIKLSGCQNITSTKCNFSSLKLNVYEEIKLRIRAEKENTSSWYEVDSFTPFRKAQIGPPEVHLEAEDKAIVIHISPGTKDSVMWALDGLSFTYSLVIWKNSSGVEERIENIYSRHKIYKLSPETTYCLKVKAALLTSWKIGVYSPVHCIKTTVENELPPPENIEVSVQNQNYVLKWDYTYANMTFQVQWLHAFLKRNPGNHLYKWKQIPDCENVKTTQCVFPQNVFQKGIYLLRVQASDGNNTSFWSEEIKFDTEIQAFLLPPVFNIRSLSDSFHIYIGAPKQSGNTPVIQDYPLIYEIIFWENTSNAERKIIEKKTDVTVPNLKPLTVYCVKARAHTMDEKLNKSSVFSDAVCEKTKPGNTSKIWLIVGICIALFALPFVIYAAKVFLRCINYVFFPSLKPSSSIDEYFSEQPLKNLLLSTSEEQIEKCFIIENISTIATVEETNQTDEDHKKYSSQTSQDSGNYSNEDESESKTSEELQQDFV

T2: APRIL (Acro Biosystems, Cat: APL-H52D1) (UniProt O75888 115-250, limits assumed)
T2 construct: also called ARPIL; A proliferation-inducing ligand
T2 sequence (looked up): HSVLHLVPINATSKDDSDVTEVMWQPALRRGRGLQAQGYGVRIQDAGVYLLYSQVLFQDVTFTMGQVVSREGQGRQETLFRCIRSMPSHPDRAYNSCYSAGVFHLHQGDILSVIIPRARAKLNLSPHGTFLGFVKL

T3: recombinant human ARPIL (R&D cat: 5860-AP-010/CF) (human, UniProt O75888 105-250, limits assumed)
T3 sequence (looked up): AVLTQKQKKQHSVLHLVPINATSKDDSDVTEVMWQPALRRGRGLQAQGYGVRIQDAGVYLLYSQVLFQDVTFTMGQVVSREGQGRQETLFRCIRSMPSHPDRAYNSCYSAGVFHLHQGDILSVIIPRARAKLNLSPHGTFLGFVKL

B1: Anifrolumab (antibody, human IgG1, kappa, V domains shown)
VH: EVQLVQSGAEVKKPGESLKISCKGSGYIFTNYWIAWVRQMPGKGLESMGIIYPGDSDIRYSPSFQGQVTISADKSITTAYLQWSSLKASDTAMYYCARHDIEGFDYWGRGTLVTVSS
VL: EIVLTQSPGTLSLSPGERATLSCRASQSVSSSFFAWYQQKPGQAPRLLIYGASSRATGIPDRLSGSGSGTDFTLTITRLEPEDFAVYYCQQYDSSAITFGQGTRLEIKR
B2: B637302 (other)
heavy: EVQLVQSGAEVKKPGESLKISCKGSGYIFTNYWIAWVRQMPGKGLESMGIIYPGDSDIRYSPSFQGQVTISADKSITTAYLQWSSLKASDTAMYYCARHDIEGFDYWGRGTLVTVSSASTKGPSVFPLAPSSKSTSGGTAALGCLVKDYFPEPVTVSWNSGALTSGVHTFPAVLQSSGLYSLSSVVTVPSSSLGTQTYICNVNHKPSNTKVDKRVEPKSCDKTHTCPPCPAPEFEGGPSVFLFPPKPKDTLMISRTPEVTCVVVDVSHEDPEVKFNWYVDGVEVHNAKTKPREEQYNSTYRVVSVLTVLHQDWLNGKEYKCKVSNKALPASIEKTISKAKGQPREPQVYTLPPSRDELTKNQVSLTCLVKGFYPSDIAVEWESNGQPENNYKTTPPVLDSDGSFFLYSKLTVDKSRWQQGNVFSCSVMHEALHNHYTQKSLSLSPGK
light: EIVLTQSPGTLSLSPGERATLSCRASQSVSSSFFAWYQQKPGQAPRLLIYGASSRATGIPDRLSGSGSGTDFTLTITRLEPEDFAVYYCQQYDSSAITFGQGTRLEIKRTVAAPSVFIFPPSDEQLKSGTASVVCLLNNFYPREAKVQWKVDNALQSGNSQESVTEQDSKDSTYSLSSTLTLSKADYEKHKVYACEVTHQGLSSPVTKSFNRGECGGGGSGGGGSMLQMAGQCSQNEYFDSLLHACIPCQLRCSSNTPPLTCQRYCSTSCREEQGEFYDHLLRDCISCASICGQHPKQCAAFCE
notes: Fusion protein of anifrolumab, TACI-19-16 and BCMA-ECD-2
B3: B606401 (other)
heavy: B2 heavy
light: EIVLTQSPGTLSLSPGERATLSCRASQSVSSSFFAWYQQKPGQAPRLLIYGASSRATGIPDRLSGSGSGTDFTLTITRLEPEDFAVYYCQQYDSSAITFGQGTRLEIKRTVAAPSVFIFPPSDEQLKSGTASVVCLLNNFYPREAKVQWKVDNALQSGNSQESVTEQDSKDSTYSLSSTLTLSKADYEKHKVYACEVTHQGLSSPVTKSFNRGECGGGGSGGGGSSTSCREEQGEFYDHLLRDCISCASICGQHPKQCAAFCE
notes: Anifrolumab with TACI-19-16 at the C-terminus of the light chain
B4: B613303 (other)
heavy: B2 heavy
light: EIVLTQSPGTLSLSPGERATLSCRASQSVSSSFFAWYQQKPGQAPRLLIYGASSRATGIPDRLSGSGSGTDFTLTITRLEPEDFAVYYCQQYDSSAITFGQGTRLEIKRTVAAPSVFIFPPSDEQLKSGTASVVCLLNNFYPREAKVQWKVDNALQSGNSQESVTEQDSKDSTYSLSSTLTLSKADYEKHKVYACEVTHQGLSSPVTKSFNRGECGGGGSGGGGSSRVDQEERFPQGLWTGVAMRSCPEEQYWDPLLGTCMSCKTICNHQSQRTCAAFCRSLSCRKEQGKFYDHLLRDCISCASICGQHPKQCAYFCENKLRSPVNLPPELMLQMAGQCSQNEYFDSLLHACIPCQLRCSSNTPPLTCQRYCNASVTNSVKGTNA
notes: Fusion protein of anifrolumab and TACI-BCMA
B5: B613301 (other)
heavy: B2 heavy
light: EIVLTQSPGTLSLSPGERATLSCRASQSVSSSFFAWYQQKPGQAPRLLIYGASSRATGIPDRLSGSGSGTDFTLTITRLEPEDFAVYYCQQYDSSAITFGQGTRLEIKRTVAAPSVFIFPPSDEQLKSGTASVVCLLNNFYPREAKVQWKVDNALQSGNSQESVTEQDSKDSTYSLSSTLTLSKADYEKHKVYACEVTHQGLSSPVTKSFNRGECGGGGSGGGGSLSCRKEQGKFYDHLLRDCISCASICGQHPKQCAYFCENKLRSPGMLQMAGQCSQNEYFDSLLHACIPCQLRCSSNTPPLTCQRYCNASVTNSVKGTNA
notes: as for B4
B6: B613302 (other)
heavy: B2 heavy
light: EIVLTQSPGTLSLSPGERATLSCRASQSVSSSFFAWYQQKPGQAPRLLIYGASSRATGIPDRLSGSGSGTDFTLTITRLEPEDFAVYYCQQYDSSAITFGQGTRLEIKRTVAAPSVFIFPPSDEQLKSGTASVVCLLNNFYPREAKVQWKVDNALQSGNSQESVTEQDSKDSTYSLSSTLTLSKADYEKHKVYACEVTHQGLSSPVTKSFNRGECGGGGSGGGGSMLQMAGQCSQNEYFDSLLHACIPCQLRCSSNTPPLTCQRYCNASVTNSVKGTNALSCRKEQGKFYDHLLRDCISCASICGQHPKQCAYFCENKLRSPG
notes: as for B4

Assays:
[1] = molecular target: T1, type I interferon (IFN) receptor …; test: cell-based or functional assay
[2] = molecular target: T1, type I interferon (IFN) receptor …; test: cell-based or functional assay; remark: listed apart in the source
[3] = molecular target: recombinant human BAFF (R&D cat: 7537-BF-025/CF) (human, UniProt Q9Y275 134-285, limits assumed); test: cell-based or functional assay
[4] = molecular target: T2, APRIL (Acro Biosystems, Cat: APL-H52D1); test: ELISA, APRIL coated, anti-human Fc-HRP, OD450
Experimental: The capabilities of fusion proteins B606401, B637302, B746201, and B805201 to bind to BAFF and APRIL were assessed by ELISA as follows:
(§1) BAFF (PeproTech, Cat: 310-13) or ARPIL (Acro Biosystems, Cat: APL-H52D1) was diluted to 1 μg/mL with PBS, and a 96-well plate was coated with the dilution overnight at 4° C. The plate was washed with PBST and blocked with Blocking Buffer (PBST containing 1% BSA) at 37° C. for 1 h. The plate was tapped. The test antibodies were diluted with Blocking Buffer. Incubation was performed at 37° C. for 1.5 h. The plate was washed with PBST. An HRP-mouse anti-human Fc antibody (GenScript, Cat: A01854-200) was diluted with Blocking Buffer. Incubation was performed at 37° C. for 40 min. The plate was washed with PBST. 100 μL of TMB substrate solution (Biopanda, Cat: TMB-S-003) was added, and color development was performed at 37° C. for 3 min. 100 μL of ELISA stop solution (Solarbio, Cat: C1058) was added. OD450 was measured.
The EC₅₀ value for the capability of B637302 to bind to APRIL decreased to 1/7 to ⅙ of that of telitacicept.

[5] = molecular target: T3, recombinant human ARPIL (R&D cat: …); test: cell-based or functional assay
[6] = molecular target: T2, APRIL (Acro Biosystems, Cat: APL-H52D1); test: ELISA, APRIL coated, anti-human Fc-HRP, OD450; remark: listed apart in the source
Experimental: The capabilities of B613301, B613302, and B613303, which are fusion proteins of anifrolumab and TACI-BCMA, to bind to BAFF and APRIL were assessed by ELISA as follows:
as §1, with “96-well plate (Costar, Cat: 3590) was coated” for “96-well plate was coated”

recombinant human BAFF (R&D cat: 7537-BF-025/CF), sequence (Q9Y275 134-285 limits assumed): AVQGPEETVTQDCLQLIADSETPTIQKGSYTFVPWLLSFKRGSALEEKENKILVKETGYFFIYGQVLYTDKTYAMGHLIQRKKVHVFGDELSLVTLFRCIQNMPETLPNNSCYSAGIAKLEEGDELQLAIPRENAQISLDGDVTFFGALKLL

Binder | IC50 (nM), inhibition of the activity of type I interferons (IFN-β, HEK-Blue IFN-α/β cells) [1] [nM] | IC50, inhibition of IFN-α-induced in vitro differentiation of B cells into plasma cells [2] [nM] | Flow cytometry proliferating B cell proportion (%), mean, BAFF-induced, drug at 10 nM [3] [%] | Flow cytometry proliferating B cell proportion (%), mean, BAFF-induced, drug at 100 nM [3] [%] | Flow cytometry proliferating B cell proportion (%), mean, BAFF-induced, drug at 1000 nM [3] [%] | Emax [4] [nM] | Flow cytometry proliferating B cell proportion (%), mean, APRIL-induced, drug at 4.12 nM [5] [%] | Flow cytometry proliferating B cell proportion (%), mean, APRIL-induced, drug at 12.35 nM [5] [%] | Flow cytometry proliferating B cell proportion (%), mean, APRIL-induced, drug at 37.04 nM [5] [%] | Flow cytometry proliferating B cell proportion (%), mean, APRIL-induced, drug at 111.11 nM [5] [%] | Flow cytometry proliferating B cell proportion (%), mean, APRIL-induced, drug at 333.33 nM [5] [%] | Flow cytometry proliferating B cell proportion (%), mean, APRIL-induced, drug at 1000.00 nM [5] [%] | Emax [6] [nM]
B1 | 1.53 | 12.7 | – | – | – | – | – | – | – | – | – | – | –
B2 | 1.59 | 10.8 | 23.8 | 22.2 | 10.9 | 2.9 | 50.6 | 50.7 | 53.6 | 51.5 | 48 | 33.6 | –
B3 | 1.94 | 17.4 | 28.1 | 25.3 | 17.9 | 2.81 | 52 | 52.9 | 53.6 | 53.1 | 50.6 | 40.3 | –
B4 | – | – | – | – | – | – | – | – | – | – | – | – | 2.33
B5 | – | – | – | – | – | – | – | – | – | – | – | – | 2.49
B6 | – | – | – | – | – | – | – | – | – | – | – | – | 2.52
